From patent US12485191B2, “Radiopharmaceuticals and methods of use thereof” (BOARD OF REGENTS OF THE UNIVERSITY OF NEBRASKA, priority 2017, dated 2025)

Columns and labels:
[1] = Distribution coefficient (Log D7.4) of the conjugates; format: physicochemical; conditions: GRPR-targeted agents
Protocol: Distribution Coefficient (Log D7.4) of the Conjugates The distribution coefficient was determined for each ^177Lu-labeled conjugate. In a 1.5 mL centrifuge tube, 0.5 mL of 1-octanol was added to 0.5 mL of PBS (pH 7.4) containing the radiolabeled peptide (500,000 cpm). The solution was vigorously vortexed for 2 minutes at room temperature and subsequently centrifuged to yield two immiscible layers. The radioactivity of the aliquots (100 μL) taken from each layer were quantified by the gamma counter and the Log D7.4 for each conjugates was calculated.

CatB = CatB (Homo sapiens, UniProt P07858); assay: CatB inhibition of GRPR-targeted agents; format: biochemical
Protocol: The Inhibition of Cathepsin B Activity by the Conjugates The phosphate buffer (0.1 M, pH=5.8) containing EDTA (1 mM), DTT (2.7 mM), and Brij®35 (0.03%) was prepared before the assay. […] The solution of cathepsin B (human Liver) in assay buffer (50 μL, 0.544 nM) was added to the mixture which was further incubated at 37° C. for 20 minutes. The fluorescence of the liberated aminomethylcoumarin at 460 nM using 355 nm excitation was measured and the IC50 of the cathepsin B inhibition versus the samples without the inhibitor was determined by nonlinear regression using GraphPad Prism 5.

PC-3 tumor = conditions: mouse, in vivo
HT-29 xenograft tumors = assay: Biodistribution study in HT-29 xenograft mouse model; format: in vivo, mice
Protocol: Female SCID mice (5 weeks of age) received subcutaneous injections of HT-29 cells (5×10^6) suspended in Matrigel® into the flanks. When the tumor size reached 80 mm^3 (two weeks after injection), the mice were randomized into three groups and intravenously injected with 10 μCi (0.37 MBq) of the purified ^177Lu labeled conjugates via tail vein. The mice were sacrificed and the tissues were excised at 4, 24, and 72 hours post-injection time points. The blood, tumor, and excised tissues were weighed. The radioactivity for each sample was measured using a gamma counter. The percentage injected dose per gram (% ID/g) and the radioactivity ratios between tumor and non-targeted tissues were calculated.

Row | inhibition of catB (in words) (CatB) | Structure (SMILES) | logD7.4 [1] | tumor retention (PC-3 tumor) [%] | retention in liver and kidney compared to 3b (in words) (HT-29 xenograft tumors; HT-29 xenograft mice) | increase in retention in the tumors compared to control 3b (HT-29 xenograft tumors; HT-29 xenograft, after 24 hours) | increase in tumor uptake (HT-29 xenograft tumors; HT-29 xenograft, by 24 hours) [%]
1 | no inhibition | CC(C)C[C@H](NC(=O)CCC(=O)O)C(=O)N[C@@H](CCCNC(=N)N)C(=O)NCCn1cc(C[C@H](NC(=O)CN2CCN(CC(=O)O)CCN(CC(=O)O)CCN(CC(=O)O)CC2)C(=O)NCCOCCOCCOCCOCCC(=O)N[C@H](Cc2ccccc2)C(=O)N[C@@H](CCC(N)=O)C(=O)N[C@@H](Cc2c[nH]c3ccccc23)C(=O)N[C@@H](C)C(=O)N[C@H](C(=O)NCC(=O)N[C@@H](Cc2c[nH]cn2)C(=O)N[C@@H](CC(C)C)[C@@H](O)CC(=O)N[C@H](CC(C)C)C(N)=O)C(C)C)nn1 [^177Lu-C-ANT, metal not drawn] | −1.9 ± 0.1 | 15 |  |  | 
2 |  | Cc1cc(C)c(C(=O)OCC(=O)[C@H](CCCCNC(=O)CNC(=O)[C@@H](CO)NC(=O)[C@@H](CO)NC(=O)[C@@H](CO)NC(=O)Cn2cc(C[C@H](NC(=O)CN3CCN(CC(=O)O)CCN(CC(=O)O)CCN(CC(=O)O)CC3)C(=O)N[C@H](CO)C(=O)N[C@H](CO)C(=O)N[C@H](CO)C(=O)N[C@@H](CCCCN)C(=O)N3CCC[C@H]3C(=O)N(C)[C@@H](CCCNC(=N)N)C(=O)N[C@@H](CCCNC(=N)N)C(=O)N3CCC[C@H]3C(=O)N[C@@H](Cc3c(C)cc(O)cc3C)C(=O)N[C@H](C(=O)N[C@@H](CC(C)C)C(=O)O)C(C)(C)C)nn2)NC(=O)[C@H](Cc2ccccc2)NC(=O)OCc2ccccc2)c(C)c1 (177Lu complex, metal not drawn) [Compound 2f] |  |  | significantly increased retention | nearly two-fold increase | 25
